The values below come from PMC12409425, “Two distinct protein-protein interfaces drive cooperative binding of the herpes simplex virus protein ICP8 to ssDNA, filament formation and annealing essential for viral replication” (The Journal of Biological Chemistry, 2025).

One data set addresses ICP8 WT (Herpes simplex virus type 1 (KOS), UniProt P17470 1-1196). Briefly: EMSA; cooperative supershifted band present; EMSA: 20 mM HEPES pH 7.5, 150 mM KCl, 2 mM EDTA, 1 mM TCEP, 6% Ficoll, on ice 30 min, gel at 4 °C; thermal shift: 20 mM Na phosphate (SI: HEPES) pH 7.6, 100 mM. Conditions: protein: recombinant; tags: none stated; chain copies: 4; label: Cy5; single strand.

Another data set deals with ICP8Δ60 (Herpes simplex virus type 1 (KOS), UniProt P17470 1-1136). The data set can be described thus: MST; 20 nM DNA; EMSA: 20 mM HEPES pH 7.5, 150 mM KCl, 2 mM EDTA, 1 mM TCEP, 6% Ficoll, on ice 30 min, gel at 4 °C; thermal shift: 20 mM Na phosphate (SI: HEPES) pH 7.6, 100 mM. The conditions noted are these: protein: recombinant; tags: none stated; label: 5' Cy5; single strand.

The target of data set [1] is T1, ICP8Δ60 (HSV-1 ICP8 lacking the 60-aa C-terminal tail) (herpes simplex virus type 1 (HSV-1), …, UniProt P17470 1-1136, in the MST only: labelled on amines with the red dye NT-647-NHS (RED-NHS Monolith kit); unlabelled in the thermal shift assays).
T1 construct: the tail is printed as residues 1136-1196; source: Sf9 insect cells infected with recombinant baculovirus (pFastBac1-ICP8Δ60), purified (SP-Sepharose cation exchange)
T1 sequence: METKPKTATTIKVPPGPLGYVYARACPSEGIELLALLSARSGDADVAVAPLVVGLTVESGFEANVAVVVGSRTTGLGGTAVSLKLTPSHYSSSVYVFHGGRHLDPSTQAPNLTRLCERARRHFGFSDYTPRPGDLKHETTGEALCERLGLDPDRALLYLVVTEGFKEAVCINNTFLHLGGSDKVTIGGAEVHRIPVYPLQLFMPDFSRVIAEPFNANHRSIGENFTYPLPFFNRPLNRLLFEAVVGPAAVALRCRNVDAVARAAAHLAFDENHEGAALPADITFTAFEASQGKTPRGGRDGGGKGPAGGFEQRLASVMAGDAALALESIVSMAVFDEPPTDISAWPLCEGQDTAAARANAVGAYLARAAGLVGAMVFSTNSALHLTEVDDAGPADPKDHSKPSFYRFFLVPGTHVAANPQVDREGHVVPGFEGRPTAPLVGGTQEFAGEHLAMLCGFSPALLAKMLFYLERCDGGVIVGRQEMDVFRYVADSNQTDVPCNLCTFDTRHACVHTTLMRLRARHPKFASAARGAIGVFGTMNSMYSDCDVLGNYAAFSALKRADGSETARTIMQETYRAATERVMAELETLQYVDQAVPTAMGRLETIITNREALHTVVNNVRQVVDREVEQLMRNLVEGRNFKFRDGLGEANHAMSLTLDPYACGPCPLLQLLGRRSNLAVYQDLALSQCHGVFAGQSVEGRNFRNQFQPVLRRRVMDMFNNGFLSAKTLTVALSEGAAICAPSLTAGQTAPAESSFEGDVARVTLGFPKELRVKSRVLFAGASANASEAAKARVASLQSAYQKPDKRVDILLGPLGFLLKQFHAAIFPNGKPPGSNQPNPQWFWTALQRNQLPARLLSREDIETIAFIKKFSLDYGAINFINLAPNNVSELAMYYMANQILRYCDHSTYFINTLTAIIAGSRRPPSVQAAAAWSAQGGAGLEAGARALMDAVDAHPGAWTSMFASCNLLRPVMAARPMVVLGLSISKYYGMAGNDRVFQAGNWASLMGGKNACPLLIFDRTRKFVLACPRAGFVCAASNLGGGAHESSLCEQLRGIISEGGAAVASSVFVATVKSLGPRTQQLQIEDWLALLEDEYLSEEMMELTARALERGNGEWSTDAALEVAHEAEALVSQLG
Briefly: label-free thermal shift (nanoDSF), dose series refitted with MoltenProt; 5 μM ICP8Δ60 preincubated with 10 to 100 μM CTD fragment (1:2 to 1:20 M ratio) for 3 h at room temperature; two-state reversible unfolding model. Conditions: both partners purified.

Data set [2] concerns the target T1, ICP8Δ60 (HSV-1 ICP8 lacking the 60-aa …). The data set can be described thus: label-free thermal shift (nanoDSF, Tycho NT.6); as a1 (1:10 M ratio), with 1.2 M excess of a 19-mer ssDNA added to the preformed binary complex; ΔTi counted against apo ICP8Δ60 without ssDNA (ssDNA alone gives 1.1 °C). The conditions noted are these: both partners purified.
Data set [3] has the same target. The data set can be described thus: MST; ICP8Δ60 labelled with NT-647-NHS at 20 nM or 50 nM, unlabelled CTD fragment titrated from low nanomolar to high micromolar; 20 mM sodium phosphate pH 7.5, 100 mM NaCl, 0.1 mM EDTA, 2 mM DTT, 5 mM MgCl2, 0.05% Tween 20; 30 min at RT; one site binding model. Conditions: both partners purified.
The target is the same in data set [4]. The data set can be described thus: label-free thermal shift (nanoDSF, Tycho NT.6); 5 μM ICP8Δ60 with a molar excess of CTD fragment (1:10 M ratio), no ssDNA; shift of the inflection temperature Ti of ICP8Δ60; 20 mM Na phosphate pH 7.6, 100 mM NaCl, 100 μM EDTA, 1 mM TCEP, 10% glycerol, 5 mM MgCl2; heated at 30 °C/min. Conditions: both partners purified.
Data set [5] concerns the molecule itself. The data set can be described thus: negative-stain electron microscopy of filament formation; 0.5 μM protein overnight at 4 °C in 20 mM HEPES-KOH pH 7.5, 100 mM NaCl, 10% glycerol, 1 mM DTT, 0.1 mM EDTA, 5 mM MgCl2; uranyl acetate stain; no DNA.

Substitutions are numbered along the chain they refer to. In names and notes the source's numbering stands.

TTTTTTTTTTTTTTTTTTTTTTTTTTTTTTTTTTTTTTTTTTTTTTTTTT (ssDNA) [Cy5-50-mer dT]: the binding result with ICP8 WT is recorded as “binds”.
With TTTTTTTTTTTTTTTTTTTTTTTTT (ssDNA) [Cy5-25-mer poly(dT)], in the data set with ICP8Δ60, the Kd came to 70 nM.

B1: ICP8-CTD WT (His-tagged entire C-terminal domain of ICP8, residues 1036-1196) (domain or fragment)
chain: AASNLGGGAHESSLCEQLRGIISEGGAAVASSVFVATVKSLGPRTQQLQIEDWLALLEDEYLSEEMMELTARALERGNGEWSTDAALEVAHEAEALVSQLGNAGEVFNFGDFGCEDDNATPFGGPGAPGPAFAGRKRAFHGDDPFGEGPPDKKGDLTLDML
notes: ICP8 (UL29) of HSV-1, entire C-terminal domain with the helical bundle and the intact 60-aa disordered tail, residues 1036-1196; The methods give no limits for the pET28a construct and give aa 1049-1135 for the Flag-tagged CTD of the cell experiments; also called WT ICP8-CTD; WT CTD; source: E. coli BL21 (pET28a-His-ICP8-CTD, codon optimised), purified (Talon cobalt beads, Superose 12 gel …)
With B1, in data set [1], the “Ti of ICP8Δ60 at 1:2 ratio (ICP8Δ60 alone 51.5)” value amounted to 52.1 ± 0.1 °C, the “Ti of ICP8Δ60 at 1:5 ratio (ICP8Δ60 alone 51.5)” value amounted to 52.7 ± 0.1 °C, the “Ti of ICP8Δ60 at 1:10 ratio (ICP8Δ60 alone 51.5)” value was determined as 53.3 ± 0.1 °C and the “Ti of ICP8Δ60 at 1:20 ratio (ICP8Δ60 alone 51.5)” value amounted to 53.9 ± 0.1 °C. In addition, in data set [2], the “ΔTi of ICP8Δ60 (Ti complex - Ti apo), + ssDNA” value (“ΔTi of ICP8Δ60 … + ssDNA” below) amounted to 2.9 °C. Also, in data set [3], the Kd was determined as 0.147 µM. Also, in data set [4], the “ΔTi of ICP8Δ60 (Ti complex - Ti apo), - ssDNA” value (“ΔTi of ICP8Δ60 … - ssDNA” below) turned out to be 2.1 °C.

B2: ICP8-CTD FNF→AAA (domain or fragment)
chain: B1 chain with F107A, N108A, F109A
notes: ICP8 (UL29) of HSV-1, C-terminal domain, residues 1036-1196, with the triple alanine substitution of F1142, N1143 and F1144; the text has 1142-1144; also called FNF→AAA CTD; source: E. coli BL21 (pET28a-His-ICP8-CTD mutant), purified (Talon cobalt beads, Superose 12 gel filtration)
Take B2: the “ΔTi of ICP8Δ60 … + ssDNA” value in data set [2] amounted to 1.9 °C. Moreover, the Kd in data set [3] came out at 21.1 µM. Further, the “ΔTi of ICP8Δ60 … - ssDNA” value in data set [4] turned out to be 0.6 °C.

B3: ICP8-CTD D1087A (domain or fragment)
chain: B1 chain with D52A
notes: ICP8 (UL29) of HSV-1, C-terminal domain, residues 1036-1196, with D1087A; source: E. coli BL21 (pET28a-His-ICP8-CTD mutant), purified (Talon cobalt beads, Superose 12 gel filtration)
As to B3, in data set [2], the “ΔTi of ICP8Δ60 … + ssDNA” value stood at 2.4 °C. In addition, the Kd in data set [3] was 1.55 µM. Besides, in data set [4], the “ΔTi of ICP8Δ60 … - ssDNA” value came out at 1 °C.

B4: ICP8 WT, full length (natural protein)
chain: METKPKTATTIKVPPGPLGYVYARACPSEGIELLALLSARSGDADVAVAPLVVGLTVESGFEANVAVVVGSRTTGLGGTAVSLKLTPSHYSSSVYVFHGGRHLDPSTQAPNLTRLCERARRHFGFSDYTPRPGDLKHETTGEALCERLGLDPDRALLYLVVTEGFKEAVCINNTFLHLGGSDKVTIGGAEVHRIPVYPLQLFMPDFSRVIAEPFNANHRSIGENFTYPLPFFNRPLNRLLFEAVVGPAAVALRCRNVDAVARAAAHLAFDENHEGAALPADITFTAFEASQGKTPRGGRDGGGKGPAGGFEQRLASVMAGDAALALESIVSMAVFDEPPTDISAWPLCEGQDTAAARANAVGAYLARAAGLVGAMVFSTNSALHLTEVDDAGPADPKDHSKPSFYRFFLVPGTHVAANPQVDREGHVVPGFEGRPTAPLVGGTQEFAGEHLAMLCGFSPALLAKMLFYLERCDGGVIVGRQEMDVFRYVADSNQTDVPCNLCTFDTRHACVHTTLMRLRARHPKFASAARGAIGVFGTMNSMYSDCDVLGNYAAFSALKRADGSETARTIMQETYRAATERVMAELETLQYVDQAVPTAMGRLETIITNREALHTVVNNVRQVVDREVEQLMRNLVEGRNFKFRDGLGEANHAMSLTLDPYACGPCPLLQLLGRRSNLAVYQDLALSQCHGVFAGQSVEGRNFRNQFQPVLRRRVMDMFNNGFLSAKTLTVALSEGAAICAPSLTAGQTAPAESSFEGDVARVTLGFPKELRVKSRVLFAGASANASEAAKARVASLQSAYQKPDKRVDILLGPLGFLLKQFHAAIFPNGKPPGSNQPNPQWFWTALQRNQLPARLLSREDIETIAFIKKFSLDYGAINFINLAPNNVSELAMYYMANQILRYCDHSTYFINTLTAIIAGSRRPPSVQAAAAWSAQGGAGLEAGARALMDAVDAHPGAWTSMFASCNLLRPVMAARPMVVLGLSISKYYGMAGNDRVFQAGNWASLMGGKNACPLLIFDRTRKFVLACPRAGFVCAASNLGGGAHESSLCEQLRGIISEGGAAVASSVFVATVKSLGPRTQQLQIEDWLALLEDEYLSEEMMELTARALERGNGEWSTDAALEVAHEAEALVSQLGNAGEVFNFGDFGCEDDNATPFGGPGAPGPAFAGRKRAFHGDDPFGEGPPDKKGDLTLDML
notes: also called WT ICP8; full-length ICP8
As for B4, the binding result in data set [5] was “binds”.

B5: ICP8-CTD Δ60 (domain or fragment)
chain: AASNLGGGAHESSLCEQLRGIISEGGAAVASSVFVATVKSLGPRTQQLQIEDWLALLEDEYLSEEMMELTARALERGNGEWSTDAALEVAHEAEALVSQLG
notes: ICP8 (UL29) of HSV-1, C-terminal domain (begins at 1036) with the last 60 residues deleted; source: E. coli BL21 (pET28a-His-ICP8-CTDΔ60), purified (Talon cobalt beads, Superose 12 gel filtration)
Turning to B5, the “ΔTi of ICP8Δ60 … + ssDNA” value in data set [2] is 2 °C. Besides, the Kd in data set [3] is 53.5 µM. Also, the “ΔTi of ICP8Δ60 … - ssDNA” value in data set [4] worked out at 0.7 °C.
